T1: His-tagged WT APPL1 (5−419) (human, UniProt Q9UKG1 5-419)
T1 sequence (looked up): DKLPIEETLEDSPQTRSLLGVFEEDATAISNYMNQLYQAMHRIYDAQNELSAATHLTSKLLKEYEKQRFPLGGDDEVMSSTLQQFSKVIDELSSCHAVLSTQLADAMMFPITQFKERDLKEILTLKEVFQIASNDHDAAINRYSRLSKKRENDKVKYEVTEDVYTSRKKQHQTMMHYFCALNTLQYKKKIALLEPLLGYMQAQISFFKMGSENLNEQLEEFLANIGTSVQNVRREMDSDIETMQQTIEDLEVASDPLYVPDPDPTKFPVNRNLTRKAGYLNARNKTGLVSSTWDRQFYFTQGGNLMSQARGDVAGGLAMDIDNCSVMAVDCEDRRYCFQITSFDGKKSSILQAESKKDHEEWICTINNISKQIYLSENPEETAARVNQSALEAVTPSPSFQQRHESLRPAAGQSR


What was measured:
AUC = target: the molecule itself; test: AUC
[1] = target: T1, His-tagged WT APPL1 (5−419); test: SPR

| Kd [1] | koff [1] | kon [1] | Binder | Kd (AUC) |
| --- | --- | --- | --- | --- |
|  |  |  | APPL1 BAR domain (residues 5−265), His tag removed (domain or fragment, human) GSHMDKLPIEETLEDSPQTRSLLGVFEEDATAISNYMNQLYQAMHRIYDAQNELSAATHLTSKLLKEYEKQRFPLGGDDEVMSSTLQQFSKVIDELSSCHAVLSTQLADAMMFPITQFKERDLKEILTLKEVFQIASNDHDAAINRYSRLSKKRENDKVKYEVTEDVYTSRKKQHQTMMHYFCALNTLQYKKKIALLEPLLGYMQAQISFFKMGSENLNEQLEEFLANIGTSVQNVRREMDSDIETMQQTIEDLEVASDPLYVPD | 130 nM |
| 900 ± 700 nM | 0.0012 s⁻¹ | 1300 M⁻¹ s⁻¹ | full-length Rab5-Q79L coupled to the SPR biosensor chip (natural protein, human, UniProt P20339-1 1-215, looked up) MASRGATRPNGPNTGNKICQFKLVLLGESAVGKSSLVLRFVKGQFHEFQESTIGAAFLTQTVCLDDTTVKFEIWDTAGLERYHSLAPMYYRGAQAAIVVYDITNEESFARAKNWVKELQRQASPNIVIALSGNKADLANKRAVDFQEAQSYADDNSLLFMETSAKTSMNVNEIFMAIAKKLPKNEPQNPGANSARGRGVDLTEPTQPTRNQCCSN |  |

— paper PMC1933402 (The EMBO Journal, 2007)
